Test results: patent US20250145706A1

Legend:
[1] = target: BCRs of a CLL patient, which does not harbor IGLV3-21^R110 (human); experiment: flow cytometry; PBMCs of a patient with non-IGLV3-21^R110 CLL, co-stained with anti-CD19 (axis label anti-CD19 FITC)
[2] = target: IGHV3-21/IGLV3-21^G110 BCR, membrane-bound on murine TKO cells (human); experiment: flow cytometry; cell mix B (1:1 IGHV3-21/IGLV3-21^G110 BCR TKO cells and BCR-negative TKO cells), co-stained with anti-IgM-PE
[3] = target: IGHV3-21/IGLV3-21^R110 BCR, membrane-bound on murine TKO cells (human); experiment: flow cytometry; cell mix A (1:1 IGHV3-21/IGLV3-21^R110 BCR TKO cells and BCR-negative TKO cells), co-stained with anti-IgM-PE
[4] = target: IGHV4-39/IGLV3-21^R110 BCR on CLL B cells (PBMCs) of a patient (human); experiment: flow cytometry; PBMCs of a CLL patient with IGHV4-39/IGLV3-21^R110 BCR, co-stained with anti-CD19 VioBright515

% of gated cells in Q5, anti-CD19 positive and mAb01-01-APC negative [1]: 98.8%
% of gated cells in Q6, anti-CD19 positive and mAb01-01-APC positive [1]: 0.28%
% of gated cells (Gate P1) in Q1, anti-IgM-PE positive and mAb01-01-APC negative [2]: 42.2%
% of gated cells (Gate P1) in Q2, anti-IgM-PE positive and mAb01-01-APC positive [2]: 1.11%
% of gated cells (Gate P1) in Q1, anti-IgM-PE positive and mAb01-01-APC negative [3]: 2.78%
% of gated cells (Gate P1) in Q2, anti-IgM-PE positive and mAb01-01-APC positive [3]: 45.5%
% of gated cells in Q5, anti-CD19 positive and mAb01-01-APC negative [4]: 0.29%
% of gated cells in Q6, anti-CD19 positive and mAb01-01-APC positive [4]: 98.7%
B1: mAb01-01 (antibody, V domains shown)
VH: QVQLQQSGPGLVQPSQSLSITCTVSGFSLTSYGIHWVRQSPGKGLEWLGVIWRGGGTDSNAAFMSRLSITKDNSKSQVFFKMNSLQADDTAIYYCARSRYDEEESMNYWGQGTSVTVSS
VL: QIVLTQSPASLSASVGETVTITCRASGNIHSYLAWYQQKQGKSPQLLVYNAKTLADGVPSRFSGSGSGTQYSLKINSLQPEDFGSYYCQHFWNTPPTFGAGTKLELKR
